Experimental data published in patent US20150322128A1 (Sanofi, published 2015).
Residue numbers refer to the chain shown, from its start. Square brackets hold non-standard residues; d marks the D form. Ends that are not written are not given here.

T1: human GIP receptor (human, UniProt P48546 22-466)
T1 sequence (looked up): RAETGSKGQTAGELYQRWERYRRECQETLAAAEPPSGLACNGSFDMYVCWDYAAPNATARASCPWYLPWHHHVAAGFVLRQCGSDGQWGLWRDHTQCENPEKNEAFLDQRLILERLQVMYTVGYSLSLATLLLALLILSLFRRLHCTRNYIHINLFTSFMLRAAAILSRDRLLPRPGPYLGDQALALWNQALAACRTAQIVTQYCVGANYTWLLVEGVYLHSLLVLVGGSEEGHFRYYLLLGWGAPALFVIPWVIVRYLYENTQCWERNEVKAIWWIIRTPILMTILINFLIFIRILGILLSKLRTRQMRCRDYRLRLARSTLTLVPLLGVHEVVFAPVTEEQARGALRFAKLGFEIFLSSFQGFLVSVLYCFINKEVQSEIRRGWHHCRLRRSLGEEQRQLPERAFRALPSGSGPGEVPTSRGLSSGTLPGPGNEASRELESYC

B1: SEQ ID NO: 9 (peptide)
peptide: HXQGTFTSDLSKQKDEEAARLFIEWLXAGGPSSGAPPPS
modifications: D-Ser at 2; Lys 14 side chain K(γE-γE-x53) = (S)-4-Carboxy-4-((S)-4-carboxy-4-hexadecanoylamino-butyrylamino)-butyryl-; Aib at 27; C-terminal amide
B2: SEQ ID NO: 13 (peptide)
peptide: B1 peptide
modifications: D-Ser at 2; Lys 14 side chain K(γE-x70) = (S)-4-Carboxy-4-octadecanoylamino-butyryl-; Aib at 27; C-terminal amide
B3: SEQ ID NO: 14 (peptide)
peptide: B1 peptide
modifications: D-Ser at 2; Lys 14 side chain K(γE-x53) = (S)-4-Carboxy-4-hexadecanoylamino-butyryl-; Aib at 27; C-terminal amide
B4: SEQ ID NO: 32 (peptide)
peptide: B1 peptide with X27K
modifications: D-Ser at 2; Lys 14 side chain K(γE-γE-x53) = (S)-4-Carboxy-4-((S)-4-carboxy-4-hexadecanoylamino-butyrylamino)-butyryl-; C-terminal amide
B5: SEQ ID NO: 34 (peptide)
peptide: H[dS]QGTFTSDLSKQLDEEAARLFIEWLKAGGPSSGAPPPS-NH2

The binders below were run against T2, human GLP-1 receptor (human, UniProt P43220 24-463) (assay: cell-based or functional assay).
B1 was tested, and the “EC50 hGLP-1R” value was 0.0018 nM.
B2 was tested, and the “EC50 hGLP-1R” value was 0.0027 nM.
For B3, the “EC50 hGLP-1R” value was 0.0021 nM.

Each binder was assayed against T3, human glucagon receptor (human, UniProt P47871 26-477) (assay: cell-based or functional assay).
T3 sequence (P47871 26-477): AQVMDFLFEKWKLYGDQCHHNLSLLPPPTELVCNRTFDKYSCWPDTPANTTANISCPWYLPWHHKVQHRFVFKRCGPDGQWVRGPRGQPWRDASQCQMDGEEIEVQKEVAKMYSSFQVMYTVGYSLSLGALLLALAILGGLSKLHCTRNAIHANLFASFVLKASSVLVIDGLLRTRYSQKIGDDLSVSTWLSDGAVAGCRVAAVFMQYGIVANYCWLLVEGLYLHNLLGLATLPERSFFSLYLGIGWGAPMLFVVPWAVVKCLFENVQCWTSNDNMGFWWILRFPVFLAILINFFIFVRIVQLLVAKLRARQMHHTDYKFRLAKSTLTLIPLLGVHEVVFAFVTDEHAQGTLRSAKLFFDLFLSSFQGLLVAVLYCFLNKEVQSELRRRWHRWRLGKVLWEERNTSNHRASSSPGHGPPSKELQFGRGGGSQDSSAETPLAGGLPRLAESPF
For B1, the “EC50 hGlucagon-R” value was 0.0118 nM.
B2 was tested, and the “EC50 hGlucagon-R” value was 0.0068 nM.
For B3, the “EC50 hGlucagon-R” value was 0.0247 nM.

Each binder was assayed against T1, human GIP receptor (assay: cell-based or functional assay).
With B1 the “EC50 hGIP-R” value was 3.6 nM.
With B2 the “EC50 hGIP-R” value was 2.54 nM.
With B3 the “EC50 hGIP-R” value was 5.36 nM.

Molecular target: T2, human GLP-1 receptor
Test: cell-based or functional assay
Remark: another data set of the same source
With B4 the “EC50 hGLP-1R” value was 0.0019 nM.
For B1, the “EC50 hGLP-1R” value was 0.0018 nM.

Molecular target: T3, human glucagon receptor
Test: cell-based or functional assay
Remark: another data set of the same source
In the case of B4, the “EC50 hGlucagon-R” value is reported as 0.0055 nM.
For B1, the “EC50 hGlucagon-R” value was 0.0118 nM.

Molecular target: T1, human GIP receptor
Test: cell-based or functional assay
Remark: another data set of the same source
With B4 the “EC50 hGIP-1” value was 0.565 nM.
With B1 the “EC50 hGIP-1” value was 3.6 nM.

Molecular target: T2, human GLP-1 receptor
Test: cell-based or functional assay
Remark: another data set of the same source
B5 was tested, and the “EC50 hGLP-1R” value was 0.0008 nM.
With B4 the “EC50 hGLP-1R” value was 0.0019 nM.
B1 was tested, and the “EC50 hGLP-1R” value was 0.0018 nM.
For B2, the “EC50 hGLP-1R” value was 0.0027 nM.
With B3 the “EC50 hGLP-1R” value was 0.0021 nM.

Molecular target: T3, human glucagon receptor
Test: cell-based or functional assay
Remark: another data set of the same source
With B5 the “EC50 hGlucagon-R” value was 0.338 nM.
B4 was tested, and the “EC50 hGlucagon-R” value was 0.0055 nM.
B1 was tested, and the “EC50 hGlucagon-R” value was 0.0118 nM.
For B2, the “EC50 hGlucagon-R” value was 0.0068 nM.
For B3, the “EC50 hGlucagon-R” value was 0.0247 nM.

Molecular target: T1, human GIP receptor
Test: cell-based or functional assay
Remark: another data set of the same source
With B5 the “EC50 hGIP-1” value was 26 nM.
In the case of B4, the “EC50 hGIP-1” value is reported as 0.565 nM.
In the case of B1, the “EC50 hGIP-1” value is reported as 3.6 nM.
B2 was tested, and the “EC50 hGIP-1” value was 2.54 nM.
B3 was tested, and the “EC50 hGIP-1” value was 5.36 nM.
